{"source": "patent US10918726B2", "about": "“Carbosilane dendrimer and aggregatable carrier obtained using said dendrimer for drug delivery system” (Quarrymen & Co. Inc., priority 2014, dated 2021)", "test": "Particle size of raw materials and micelles by dynamic light scattering (DLS, ZETASIZER NANO-S)", "format": "physicochemical", "conditions": "for particle size: DLS after overnight incubation at 37° C., measured at 25° C.; for Particle diameter peak by number / Particle diameter peak by scattering intensity / Zeta Average (average particle diameter): Table 1, raw materials and products in PBS, measured 5 times at 25° C.", "method": "After vortex, the solution was stood at 37° C. for overnight incubation to bind GFP and the silole dendrimer, and subsequently to form the micelles. The incubation time for this experiment was about 16 to 18 hours. The properties of the micelle particles in the solution were measured by using dynamic light scattering method (DLS; Dynamic light scattering).\nAlso, the particle size in the reaction mixture was measured at 25° C. by using ZETASIZER NANO-S(manufactured by Malvern Instrument Ltd.) with a laser beam wavelength of 532 nm.\nIt was measured whether the micelles including each drug are formed in the sample to which each model drug is added; and if the micelles including the drug are formed, their particle size were measured by using the dynamic light scattering method. Here, DiI, Oil orange SS, and goat anti mouse IgG-Alexa 610 were used as drug models.\nThe particle properties of the target peptide sequence-binding micelle were measured by a dynamic light scattering method as the same as used in the example 1 (see FIG. 11). […] As a result, the particles having the particle size of about 100 nm to 200 nm were confirmed as the same as those in the example 1."}
{"molecule": "20 μM GFP only: green fluorescent protein, SEQ ID NO: 1, cysteine at position 251, cysteine 60 replaced with serine", "values": [{"measurement": "particle size", "result": "about 4 nm"}, {"measurement": "Particle diameter peak by number", "result": 4.682, "unit": "nm"}, {"measurement": "Particle diameter peak by scattering intensity", "result": 838.8, "unit": "nm"}, {"measurement": "Zeta Average (average particle diameter)", "result": 860.7, "unit": "nm"}]}
{"molecule": "C[Si](C)(CCC[Si](CCCBr)(CCCBr)CCCBr)CCC[Si](CCCBr)(CCCBr)CCCBr", "note": "[50 μM Silole only]", "values": [{"measurement": "particle size", "result": "about 650 nm"}, {"measurement": "Particle diameter peak by number", "result": 649.3, "unit": "nm"}, {"measurement": "Particle diameter peak by scattering intensity", "result": 664.6, "unit": "nm"}, {"measurement": "Zeta Average (average particle diameter)", "result": 894.5, "unit": "nm"}]}
